Assay results from patent publication US20140120095A1 (Boehringer Ingelheim, published 2014).

Target: T1, human DLL4 expressed on cells (CHO-hDLL4; HEK293-hDLL4) (human, UniProt Q9NR61 27-685)
T1 construct: full length human DLL4 overexpressed on CHO cells (FMAT, FACS) or HEK293 cells (reporter assay)
Test: FACS titration on human DLL4 expressing cells, detection anti-c-myc Alexa647 (Example 5.8, Example 7), MCF

B1: DLLBII129E11 (VHH, not shown: small tags and cut ends)
VHH: EVQLVESGGGLVQAGGSLRLSCAASGRTFSSYAMAWYRQAPGKEREYVAAIRWSGGTAYYADSVQGRFTISRDNAKNTVYLQMNSLKPEDTAVYYCANRAPDTRLRPYLYDYWGQGTQVTVSS
  EC50 (read off the curve): ~10 nM
